The text below walks through data of patent publication US20230416371A1.

Assay [1] deals with human FcγRIIa R (allotype R131) extracellular domain (human) (UniProt P12318). Kind of assay: SPR Biacore 8K+; KD for FcγRIIb divided by KD for this FcγR. (In general: SPR reads the build-up and loss of mass on a sensor chip optically.)
The target is the same in assay [2]. Kind of assay: SPR Biacore 8K+; KD of G1d divided by KD of this antibody.
Assay [3] shares this target. The assay can be described thus: SPR Biacore 8K+, 25 C, antibody captured, FcγR as analyte, 1:1 Langmuir model.

EGL-GASDALIE (H240-GASDALIE/L73-k0) (antibody), sequence (heavy): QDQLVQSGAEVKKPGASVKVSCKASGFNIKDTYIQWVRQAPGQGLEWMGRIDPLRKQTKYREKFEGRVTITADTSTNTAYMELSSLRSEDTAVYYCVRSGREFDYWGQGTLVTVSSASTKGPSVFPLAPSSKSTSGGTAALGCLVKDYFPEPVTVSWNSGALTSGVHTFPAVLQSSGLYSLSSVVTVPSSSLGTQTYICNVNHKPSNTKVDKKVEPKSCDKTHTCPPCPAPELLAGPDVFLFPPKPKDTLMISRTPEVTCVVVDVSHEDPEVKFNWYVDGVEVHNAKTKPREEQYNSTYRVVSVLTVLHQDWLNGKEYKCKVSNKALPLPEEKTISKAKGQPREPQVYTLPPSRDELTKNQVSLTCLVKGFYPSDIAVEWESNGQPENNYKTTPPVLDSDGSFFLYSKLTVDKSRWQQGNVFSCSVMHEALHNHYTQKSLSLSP
EGL-GASDALIE (H240-GASDALIE/L73-k0) (antibody), sequence (light): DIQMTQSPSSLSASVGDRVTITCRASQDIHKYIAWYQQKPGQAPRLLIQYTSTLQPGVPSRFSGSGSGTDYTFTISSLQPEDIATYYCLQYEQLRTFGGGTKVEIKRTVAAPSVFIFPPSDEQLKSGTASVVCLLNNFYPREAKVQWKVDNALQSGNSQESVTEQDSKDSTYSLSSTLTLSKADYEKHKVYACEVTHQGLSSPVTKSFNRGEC
human FcγRIIa R (allotype R131) extracellular domain (human), sequence (P12318 34-217 H167R): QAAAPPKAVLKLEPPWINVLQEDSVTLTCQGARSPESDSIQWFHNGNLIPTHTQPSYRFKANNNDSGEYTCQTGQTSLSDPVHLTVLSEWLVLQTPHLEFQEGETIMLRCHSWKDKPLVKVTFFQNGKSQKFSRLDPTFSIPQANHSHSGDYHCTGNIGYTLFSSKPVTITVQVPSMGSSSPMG
EGL-afucosyl (H240-G1d/L73-k_glycomab) (antibody), sequence (heavy): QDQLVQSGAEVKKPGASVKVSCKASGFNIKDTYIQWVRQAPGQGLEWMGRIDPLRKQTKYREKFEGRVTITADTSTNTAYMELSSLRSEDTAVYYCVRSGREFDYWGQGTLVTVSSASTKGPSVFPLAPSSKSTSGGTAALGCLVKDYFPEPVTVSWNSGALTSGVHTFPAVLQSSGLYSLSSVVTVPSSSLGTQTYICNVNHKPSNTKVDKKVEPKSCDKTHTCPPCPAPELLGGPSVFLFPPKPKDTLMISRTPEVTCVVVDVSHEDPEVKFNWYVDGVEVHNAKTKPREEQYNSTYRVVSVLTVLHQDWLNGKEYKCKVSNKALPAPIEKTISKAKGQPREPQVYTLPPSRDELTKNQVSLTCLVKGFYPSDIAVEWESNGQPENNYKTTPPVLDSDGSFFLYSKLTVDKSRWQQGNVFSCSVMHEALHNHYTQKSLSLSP
EGL-afucosyl (H240-G1d/L73-k_glycomab) (antibody), sequence (VL): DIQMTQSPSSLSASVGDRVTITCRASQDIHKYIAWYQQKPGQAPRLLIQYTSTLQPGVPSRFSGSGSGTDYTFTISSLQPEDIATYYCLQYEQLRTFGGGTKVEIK

In general, Kd refers to the constant that tells how readily two partners part at equilibrium. Lower therefore signals tighter binding. Take “EGL-GASDALIE (H240-GASDALIE/L73-k0) (antibody)”: the A/I ratio (KD for FcγRIIb divided by KD for each FcγR) in assay [1] turned out to be 16.5. Further, in assay [2], the Relative value to KD between G1d and hFcγRs stood at 10.3 times. Also, in assay [3], the Kd came to 161 nM.
As to “EGL-afucosyl (H240-G1d/L73-k_glycomab) (antibody)”, the A/I ratio (KD for FcγRIIb divided by KD for each FcγR) in assay [1] came to 6. In assay [2], the Relative value to KD between G1d and hFcγRs worked out at 1.8 times. In assay [3], the Kd was found to be 946 nM.
